Laboratory results as given in patent US20230212304A1 (BIOSION, published 2023).
Numbering of substitutions follows the chain as printed. Like-named read-outs stand apart in the source and are kept apart here.

Key:
[1] = target: T1, recombinant human CTLA4 protein with human IgG1 Fc tag at the C-terminus (Acro biosystems, Cat#CT4-H5255) (human, UniProt P16410 37-162); experiment: cell-based or functional assay
T1 sequence (looked up): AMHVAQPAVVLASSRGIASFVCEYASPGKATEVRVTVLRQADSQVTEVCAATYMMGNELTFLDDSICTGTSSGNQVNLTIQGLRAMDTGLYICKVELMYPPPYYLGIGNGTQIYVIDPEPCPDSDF

[2] = target: T1, recombinant human CTLA4 protein with …; experiment: cell-based or functional assay; remark: listed apart in the source
[3] = target: T1, recombinant human CTLA4 protein with …; experiment: capture ELISA: antibody captured on coated plate (anti-human IgG Fc for the chimeric antibodies), biotin human CTLA4-Fc, streptavidin-HRP, OD(450-630)
Experimental: (§1) Plates were washed once with wash buffer (PBS+0.05% v/v Tween-20, PBST) and then blocked with 200 µl/well blocking buffer (PBST with 5% w/v non-fatty milk) for 2 hours at 37° C. […] After a final wash, plates were incubated with 100 µl/well substrate TMB (Innoreagents, Cat#TMB-S-002). The reaction was stopped in 15 minutes at room temperature with 50 µl/well 1M H₂SO₄, and the absorbance of the each well was read on a microplate reader using dual wavelength mode with 450 nm for TMB and 630 nm as the reference wavelength, then the OD (450-630) values were plotted against antibody concentration. Data was analyzed using Graphpad Prism software and EC₅₀ values were reported.
For the capture ELISA, AffiniPure Goat Anti-Human IgG, Fcy fragment specific (Jackson Immuno Research, Cat#109-005-008) was used instead of AffiniPure Goat Anti-Mouse IgG, F(ab′)₂ fragment specific, 100 µl/well.

[4] = target: T1, recombinant human CTLA4 protein with …; experiment: capture ELISA (plate coated with goat anti-human IgG F(ab')2 per paragraph 181), biotin human CTLA4-Fc, streptavidin-HRP, OD(450-630)
Experimental: as §1
(§2) In the capture ELISA assay, the 96-well micro plates were coated with 2 µg/ml goat anti-human IgG (AffiniPure Goat Anti-Human IgG, F(ab′)₂ fragment specific, Jackson Immunoresearch, Cat#109-005-097) instead of the goat anti-mouse IgG F(ab′)₂ fragment, 100 µl/well.

[5] = target: T2, cynomolgus monkey CTLA4-his protein (Acro biosystems, Cat#CT4-C5227) (cynomolgus monkey, UniProt G7PL88 36-161); experiment: SPR, Biacore T200; antibody captured, CTLA4-his as analyte
T2 construct: bought recombinant protein; also called Cynomolgus CTLA4-his; not shown: his tag
T2 sequence: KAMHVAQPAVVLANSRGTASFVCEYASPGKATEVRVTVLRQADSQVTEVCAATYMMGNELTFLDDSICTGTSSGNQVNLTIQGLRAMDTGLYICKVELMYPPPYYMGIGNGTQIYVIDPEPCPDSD
Experimental: (§3) Un-reacted moieties on the biosensor surface were blocked with ethanolamine. […] The antigen-antibody association kinetics was followed for 2 minutes and the dissociation kinetics was followed for 10 minutes. The association and dissociation curves were fit to a 1:1 Langmuir binding model using BIAcore evaluation software.

[6] = target: T3, recombinant human CTLA4-his protein (Acro biosystems, Cat#CT4-H5229) (human, UniProt P16410 37-162); experiment: as above
T3 construct: bought recombinant protein; not shown: his tag
T3 sequence (looked up): T1 sequence (looked up)
Experimental: as §3

[7] = target: T1, recombinant human CTLA4 protein with …; experiment: cell based blocking FACS: antibody pre-mixed with human CTLA4-Fc, added to Daudi cells; blocked ligands: cell surface CD80/CD86
[8] = target: T1, recombinant human CTLA4 protein with …; experiment: capture ELISA: antibody captured on anti-mouse IgG F(ab')2 coated plate, biotin human CTLA4-Fc 26 ng/ml, streptavidin-HRP, OD(450-630)
Experimental: as §1

[9] = target: T1, recombinant human CTLA4 protein with …; experiment: competitive ELISA: antibody pre-mixed with biotin human CTLA4-Fc, added to plate coated with the benchmark; competitor: coated Yervoy
Experimental: (§4) Plates were washed once with wash buffer, blocked with 200 µl PBST with 5% w/v non-fatty milk, incubated for 2 hours at 37° C., and washed 4 times.
(§5) After incubation at 37° C. for 40 minutes, plates were washed 4 times again using wash buffer. Then the plates were added and incubated with 100 µl/well streptavidin conjugated HRP (1:10000 dilution in PBST, Jackson Immuno Research, Cat#016-030-084, 100 µl/well) for 40 minutes at 37° C. Plates were finally washed using wash buffer. Finally, TMB was added and the reaction was stopped using 1M H₂SO₄, and the absorbance of the each well was read on a microplate reader using dual wavelength mode with 450 nm for TMB and 630 nm as the reference wavelength, then the OD (450-630) values were plotted against antibody concentration. Data was analyzed using Graphpad Prism software and IC₅₀ values were reported.
as §2

[10] = target: T1, recombinant human CTLA4 protein with …; experiment: cell based blocking FACS: antibody pre-mixed with human CTLA4-Fc, added to Daudi cells; blocked ligands: cell surface CD80/CD86; remark: listed apart in the source
Experimental: (§6) Daudi cells were harvested from cell culture flasks at the log phase, washed twice and re-suspended in PBS containing 2% v/v Fetal Bovine Serum (FACS buffer). […] Cells were washed twice and re-suspended in FACS buffer. Fluorescence was measured using a Becton Dickinson FACS Canto II-HTS equipment. Data was analyzed using Graphpad Prism software and IC₅₀ values were reported.

[11] = target: T1, recombinant human CTLA4 protein with …; experiment: competitive ELISA: antibody pre-mixed with biotin human CTLA4-Fc (65 ng/ml), added to plate coated with the benchmark; competitor: coated Yervoy
Experimental: as §4, §5

[12] = target: T1, recombinant human CTLA4 protein with …; experiment: cell based blocking FACS: antibody pre-mixed with human CTLA4-Fc (1 ug/mL), added to Daudi cells; blocked ligands: cell surface CD80/CD86
Experimental: as §6

[13] = target: T2, cynomolgus monkey CTLA4-his protein …; experiment: SPR, Biacore; antibody captured on anti-human IgG CM5 chip, CTLA4-his as analyte
Experimental: as §3, with “software. […]” for “software.”

[14] = target: T3, recombinant human CTLA4-his protein …; experiment: as above
Experimental: as §3, with “software. […]” for “software.”

[15] = target: T3, recombinant human CTLA4-his protein …; experiment: BLI, Octet; antibody from cell supernatant on AHC sensor, CTLA4-his as analyte
[16] = target: T1, recombinant human CTLA4 protein with …; experiment: cell based blocking FACS: antibody pre-mixed with human CTLA4-Fc, added to Daudi cells; blocked ligands: cell surface CD80/CD86; remark: listed apart in the source
Experimental: as §6, §2

[17] = target: T1, recombinant human CTLA4 protein with …; experiment: as above; remark: listed apart in the source
[18] = target: T3, recombinant human CTLA4-his protein …; experiment: BLI, Octet RED96; antibody on AHC sensor, CTLA4-his as analyte
Experimental: (§7) Briefly, AHC biosensors (anti-human IgG Fc capture, from ForteBio) were presoaked with 10 mM glycine (pH 1.5) for 3 seconds, and then dipped in a well with running buffer (0.5% w/v BSA in PBST) for 3 seconds, the soaking and dipping steps were repeated for three times. […] A new baseline was run for 180 seconds in another well with running buffer. […] Finally, sensors were presoaked with 10 mM glycine (pH 1.5) for 3 seconds, and then were dipped in a well with running buffer for 3 seconds, the soaking and dipping steps repeated for three times. The association and dissociation curves were fit to a 1:1 Langmuir binding model using ForteBio Data Analysis 8.1.

[19] = target: T3, recombinant human CTLA4-his protein …; experiment: BLI, Octet; antibody at 5 ug/ml on AHC sensor, CTLA4-his as analyte
Experimental: as §7

B1: mouse anti-CTLA4 monoclonal antibody D1D5 (antibody, V domains shown)
VH: EVKLVESGGGLVKPGGSLKLSCAASGFTFSDYGMAWVRQAPGKGPEWVAFISNLAYSVYYADTETGRFTISREDAKNTLYLEMSSLRSEDTAMYYCARSGLPYAMDYWGQGTSVTVSS
VL: DIQMTQTTSSLSASLGDRVTISCRASQDISNYLNWYQQKPDGTVKLLIYYISRLHSGVPSRFSGSGSGTDFSLTISNLEQEDIATYFCQQGRMLPWTFGGGTRLEIK
notes: mouse mAb purified from hybridoma supernatant
EC50 of IL-2 release (GS-J1 T cells + GS-C1/CD80 cells + human CTLA4-Fc, IL-2 HTRF) [1]: 37.5 nM | EC50 of IL-2 release (GS-J1 T cells + GS-C1/CD80 cells + human CTLA4-Fc, IL-2 HTRF) [2]: 42.3 nM | EC50 [3]: 0.632 nM | EC50 [4]: 0.778 nM | Kd [5]: 4.67 nM | koff [5]: 0.00047 s⁻¹ | kon [5]: 101000 M⁻¹ s⁻¹ | Kd [6]: 1.89 nM | koff [6]: 0.000276 s⁻¹ | kon [6]: 146000 M⁻¹ s⁻¹ | IC50 [7]: 9.67 nM | EC50 [8]: 0.103 nM | IC50 [9]: 5.75 nM | IC50 [10]: 5.82 nM | IC50 [11]: 0.646 nM | IC50 [12]: 4.77 nM

B2: huD1D5-V9 (antibody, human IgG4 S228P, kappa, V domains shown)
VH: B1 VH with K3Q, K19R, E73D, T78S, E82Q, S84N, S88A, M93V, S113T
VL: DIQMTQSPSSLSASVGDRVTITCRASQDISNYLNWYQQKPGKVPKLLIYYISRLHSGVPSRFSGSGSGTDFTLTISSLQPEDVATYYCQQGRMLPWTFGGGTKVEIKR
notes: humanized IgG4/kappa; cell supernatant on Octet, purified antibody in Biacore, ELISA, FACS and the functional assay; also called hu CTLA4 D1D5-V9; huDID5-V9
EC50 of IL-2 release (GS-J1 T cells + GS-C1/CD80 cells + human CTLA4-Fc, IL-2 HTRF) [2]: 27.3 nM | EC50 [4]: 0.516 nM | IC50 [9]: 0.642 nM | Kd [13]: 2.13 nM | koff [13]: 0.000576 s⁻¹ | kon [13]: 271000 M⁻¹ s⁻¹ | Kd [14]: 3.02 nM | koff [14]: 0.000519 s⁻¹ | kon [14]: 172000 M⁻¹ s⁻¹ | IC50 [10]: 5.53 nM | Kd [15]: 4.37 nM | koff [15]: 0.000471 s⁻¹ | kon [15]: 108000 M⁻¹ s⁻¹

B3: mouse anti-CTLA4 monoclonal antibody C1D1 (antibody, V domains shown)
VH: EVKLDETGGGLVQPGRPLKLSCVASGFTFSDNWMNWVRQSPEKGLEWVAQIRNKPYNYETYYSDSVKGRFTISRDDSKSSVYLQMNNLRVEDMGIYYCTGGMDYWGQGTSVTVSS
VL: DIQMTQSPASLSASVGETVTITCGASEIIYGALNWYQQKQGKSPQLLIYGATNLADGMSSRFSGSGSGRQYSLKISSLHPDDAATYYCQKILSPPPWTFGGGTKLEIK
notes: as for B1
IC50 [16]: ~9.72 nM | EC50 of IL-2 release (GS-J1 T cells + GS-C1/CD80 cells + human CTLA4-Fc, IL-2 HTRF) [1]: 35.1 nM | EC50 of IL-2 release (GS-J1 T cells + GS-C1/CD80 cells + human CTLA4-Fc, IL-2 HTRF) [2]: 30 nM | EC50 [3]: 0.445 nM | EC50 [4]: 0.121 nM | Kd [5]: 0.183 nM | koff [5]: 8.76e-05 s⁻¹ | kon [5]: 478000 M⁻¹ s⁻¹ | Kd [6]: 0.399 nM | koff [6]: 0.0001 s⁻¹ | kon [6]: 251000 M⁻¹ s⁻¹ | IC50 [17]: ~11.6 nM | EC50 [8]: 0.0479 nM | IC50 [9]: 0.8 nM | IC50 [11]: 0.338 nM | IC50 [12]: 6.22 nM

B4: chimeric C1D1 anti-CTLA4 antibody (antibody, human IgG4 S228P, kappa, V domains shown)
VH: B3 VH
VL: DIQMTQSPASLSASVGETVTITCGASEIIYGALNWYQQKQGKSPQLLIYGATNLADGMSSRFSGSGSGRQYSLKISSLHPDDAATYYCQKILSPPPWTFGGGTKLEIKR
notes: mouse variable domains on human IgG4/kappa, made in 293F cells
Kd [18]: 0.335 nM | koff [18]: 0.000296 s⁻¹ | kon [18]: 884000 M⁻¹ s⁻¹ | Kd [19]: < 0.001 nM | koff [19]: < 1e-07 s⁻¹ | kon [19]: 525000 M⁻¹ s⁻¹ | IC50 [16]: ~9.96 nM | EC50 of IL-2 release (GS-J1 T cells + GS-C1/CD80 cells + human CTLA4-Fc, IL-2 HTRF) [2]: 34 nM | EC50 [3]: 0.505 nM | EC50 [4]: 0.156 nM | IC50 [17]: 8.56 nM | IC50 [9]: 2.11 nM | Kd [13]: 0.243 nM | koff [13]: 0.000398 s⁻¹ | kon [13]: 1.64e+06 M⁻¹ s⁻¹ | Kd [14]: 0.629 nM | koff [14]: 0.000422 s⁻¹ | kon [14]: 670000 M⁻¹ s⁻¹
